How the values were obtained:
[1] = target: RBD of SARS-CoV-2 (B lineage) (UniProt P0DTC2)
[2] = target: RBD of SARS-CoV-2, on infectious virus (UniProt P0DTC2)
RBD of hCoV-229E = RBD of hCoV-229E (UniProt P15423)

Row | Substance | disulfide bond cleavage activity (remaining rate of native RBD; maleimide-PEG 2k, SDS-PAGE) [1] | antiviral activity (number of viral copies of SARS-CoV-2 in supernatant of infected airway organoids) [2] | disulfide bond cleavage activity (remaining rate of native RBD; maleimide-PEG 2k, SDS-PAGE) (RBD of hCoV-229E)
1 | gene recombinant of human PDI (protein disulfide isomerase) | The order of the disulfide bond cleavage activity of the RBD from highest to lowest was PDI, ERp46, P5, ERp72, and ERp57. Among these, the disulfide bond cleavage activity of PDI was significantly high. | Both PDI and ERp46 inhibited the SARS-CoV-2 infection in a concentration-dependent manner. | The order of the disulfide bond cleavage activity of the RBD of hCoV-229E from highest to lowest was PDI, ERp46, P5, Erp57, and ERp72. Among these, the disulfide bond cleavage activity of PDI was significantly high.
2 | gene recombinant of human ERp46 (thioredoxin domain containing 5) | The order of the disulfide bond cleavage activity of the RBD from highest to lowest was PDI, ERp46, P5, ERp72, and ERp57. | Both PDI and ERp46 inhibited the SARS-CoV-2 infection in a concentration-dependent manner. | The order of the disulfide bond cleavage activity of the RBD of hCoV-229E from highest to lowest was PDI, ERp46, P5, Erp57, and ERp72.

— patent publication US20260248897
